Experimental findings from the DeepSol protein solubility set are described below.

This series can be described thus: soluble on expression in E. coli; label from the status in PepcDB or PDB records.
Regarding “MDDYMVLRMIGEGSFGRALLVQHESSNQMFAMKEIRLPKSFSNTQNSRKEAVLLAKMKHPNIVAFKESFEAEGHLYIVMEYCDGGDLMQKIKQQKGKLFPEDMILNWFTQMCLGVNHIHKKRVLHRDIKSKNIFLTQNGKVKLGDFGSARLLSNPMAFACTYVGTPYYVPPEIWENLPYNNKSDIWSLGCILYELCTLKHPFQANSWKNLILKVCQGCISPLPSHYSYELQFLVKQMFKRNPSHRPSATTLLSRGIVARLVQKCLPPEIIMEYGEEVLEEIKNSKHNTPRKKTNPSRIRIALGNEASTVQEEEQDRKGSHTDLESINENLVESALRRVNREEKGNKSVHLRKASSPNLHRRQWEKNVPNTALTALENASILTSSLTAEDDRGGSVIKYSKNTTRKQWLKETPDTLLNILKNADLSLAFQTYTIYRPGSEGFLKGPLSEETEASDSVDGGHDSVILDPERLEPGLDEEDTDFEEEDDNPDWVSELKKRAGWQGLCDR”, the “soluble on expression in E. coli” value is on record as “soluble”.
Next, “MSTRKDYLSFIAVAAHEFVHTWNVKQYRPKGIVPYDYQQENYSNLLWLVEGSTSYLQYQLLLRGNLMTTDEFFTALAKRITAHAHKPGKESQSVAQASFDAWISEGGDYGNNHSVNIYSEGFLASWLLDFDILAKTALEHHHHHH”: “not soluble”.
With “MNSLLFVYGTLRKHEKNHHLLAQSACINEQARTKGSLFAAKEGPTVVFNDEDEGYIYGEVYEADELCIHKLDQFFQGYHKQTVFVETDVGIKIALIYFMNKDGCAGFTKISSGDWKEHQMISKSKNPIYYFAYGSCMDNARFQKAGVDHYFQDPVGRAVLKGYTTRFTLKREDGSRADMLEDGGTTEGVLYRIPYSALSYLYKREGVESLTYRPAFVDVEAGGRHYKDCLTFLVLQKEAEIAPPQHYQIEIERGAELYLSPEFTEKLKRHMNSLPKGLEHHHHHH”, the “soluble on expression in E. coli” value is “soluble”.
With “MGSDKIHHHHHHMRILLVGHYPPHKGGVARHVKQLKECLEKRHEVYVLTYGTVAVEEENVYSVKVPNIFGIRGTSFALLASKKIVKLHEKYNFDLVHAHYVGTTSFAGVLAKRKTGVPLVITAHGSDLEFMSRLPLGGYFVKTSIMEADYVIAVSHYLAKKALELGASRISVIPNWTELSGESERKYILFLGRVASYKGIEDFIELAKRFPGEEFVVAGEGPLLKKLRAKSPPNVKFLGYVPAEDVLKKAKVLVLPSKREGFGLVVIEANSFKVPVLGRNVGGIRELIRFSKNGYLFEDIEDAITYLKTLLVPKTNVKLGSIGKRISKGHSQEKMCERVEEIYREVIS”, the “soluble on expression in E. coli” value was “not soluble”.
Next, “MAMVSGRRSTLNPDAPLFIPAAVRQVEDFSPEWWQLVTTSTWYPDYWISQQQQGADGFYDNGENENGGGHIDVADLLPESFDFDDMEDFFDTDAAEFDQGFDGRMYYQAPSEFGFGKNGEMVKKSSGNRSPRSIVEPAKYAEKPAKWGNQRVAAAPRNIHQPR”: “soluble”; “MGSDKIHHHHHHMNRGKALQLVKPHLTEHRYQHTIGVMETAIDLAKLYGADQQKAELAAIFHDYAKFRDKNEMRTLIREKLSQQDILFYGDELLHAPCGAYYVREEVGIEDEDVLQAIRFHTTGRPNMSLLEKIIFLADYIEPNRQFPGVEKVRTQAKTDLNGAIISSLVNTITFLLKKNQPIYPDTLATYNQLLLEQK”: “not soluble”.
“MTEHKSGFVSIIGRPNVGKSTFVNRVIGHKIAIMSDKAQTTRNKIQGVMTRDDAQIIFIDTPGIHKPKHKLGDYMMKVAKNTLSEIDAIMFMVNANEEIGRGDEYIIEMLKNVKTPVFLVLNKIDLVHPDELMPKIEEYQSYMDFTEIVPISALEGLNVDHFIDVLKTYLPEGPKYYPDDQISDHPEQFVVGEIIREKILHLTSEEIPHAIGVNVDRMVKESEDRVHIEATIYVERDSQKGIVIGKGGKKLKEVGKRARRDIEMLLGSKVYLELWVKVQRDWRNKVNFIRQIGYVEDQD”: the “soluble on expression in E. coli” value was “not soluble”.
Consider “MGSDKIHHHHHHMKMVTKLSIVLGLIATLVLSGCQKHDTHEEMPHYAATTPFREDTSILEPYVCQIRAIRHIEVRSLEKGYLTHIFIDEGQWVKKGQPMFKIMPNVYQAELLTAEAEAQNVNIEYLNTKALADKNIVSANELALAKAKLDKANAQVNLAKTHLGFTDIRAPFDGITDHLAVRIGSLLDEDDLLTELSDIAHLWVYFNVPEAKYLDFIRREKGKTNEKVQLRMANGEIYEHTGVIETIVGDFYNTSGNIQFRALFENPDRVLRHGQTGTILMTVPYPNAMLIPQKATFEIMDKIYLYVVNKEEKVEQRLIQIEAELPHMFIVKSGVNDGERILIEGMRKVSPGDKVMIDLKPPQEVRSELMKLYTE”, for which the “soluble on expression in E. coli” value is on record as “not soluble”.
As to “VNEIVVNPNATLDWQLALRQAAGKTDLARDMLQMLLDFLPEVRNKVEEQLVGENPEGLVDLIHKLHGSCGYSGVPRMKNLCQLIEQQLRSGTKEEDLEPELLELLDEMDNVAREASKIL”, the “soluble on expression in E. coli” value was “not soluble”.
On to “MKETEILNRAYNYMCTYHKDDATGHDIAHINRVLRLATYIAEQEQSQHMLTIQLASLLHDTVDSKLTNHEKALTKLKSFLKDLQLPKEQQQHILHIIKHISYRHGQNNEVSLTLEGQIVRDADRLDAIGAIGIARTFQFAGHFNEPMWVEHSTKHITETDDAHYDQWSPSAIKHFYEKLLKLKSLMHTETAKQLAAQRHQYMENFINQFFEEWYFLEHHHHHH”, for which the “soluble on expression in E. coli” value is reported as “soluble”.
Regarding “SLNGRPTTPNGAAGKWGDYRKCDTPKRTVDHMLNHIADTHSDIDFIIWTGDLPPHDVWNQTKEENLKVLKETVTQMTEKFPGIPIFPALGNHESAPVNSFPPPYVQQVDSSIAWLYDELDVQWRRWLPASVSHTVRRGAFYSVLVRPGYRIISLNMNYCNNKNWWLLLNSTDPATELQWFIYELQSAEFAGEKVHVIGHIPPGHSDCLKVWSRNYYKIVSRFESTITAQFFGHTHFDEFEVFYDPHDLSRATSIAYIGPSVTPYNDLNPGYRIYYIDGDHDETTRLVVDHESWIMNLKEANLYDYPIWYKLYSTRAAYGMKGLRPADWDQLINNMTDSKELFDLYYKHYWKASPVKPECDYECRKRILCDAKSGRSHDRKYFCEEVEAKIDESNKGWKDWLFS”, the “soluble on expression in E. coli” value is reported as “not soluble”.
Turning to “MSSHKEEPLEADVDQLTQYRERCADHVTEFKSILDECNDRVNSRSNTEETCHQEMADYVHHLDHCAMPKAFASLK”, the “soluble on expression in E. coli” value is reported as “not soluble”.
“MSLNRLSIPYSNKSLDYYFFVIQEASVKRAVLARSGEFQATNANFDNTRQLEQWQSLLLSRPSAIISDPIDSQAIVSAIRRYNREKIPVGIIDTPADGGDVAITVSFDNFQGGVMAAEEIVNRLITRYGRPKGTVLNCYGALASVAWRLRKEGMDSVFAKYPGITYLARPTDGQLEKMLSVTLSTLSEYPDLDAVHAPSDSPSRGIVTALQQKGRWKKIGEAGHVIFVNIDGEPIALKWIQDGYMDACISQDPVAYGEIAVDMIVKHALKGEAVPLGTYQDKKYFWESGEIVQGKTGPTLIIPAFVINRDNVQDPRHWASVAEKTWGIPEGHHHHHH”: the “soluble on expression in E. coli” value is given as “soluble”.
As for “MRRNSKERKNRATRRSQGSYQEIIGRTWIFRGAHRGRVTRRNIIWHELIGLRVRIVGSTHPAFVGIEGYVIDETRNMLVIAGDRIWKVPKDVCIFEFEADDGTKIKIPGERLVGRPEMRLKKRWKKWLEHHHHHH”, the “soluble on expression in E. coli” value is recorded as “not soluble”.
Take “MVGGDGATRREQSLCDSCYFAAFDLVDAPDTIEVMVCARCGAVHRGNRWVDIGADDYVDVAVAETTEALGVHLEAEDVDWEVRPEKLDDNTVRMHATFTGVVRDTHRTEQVAVTVKVSRQTCQRCGRIAGESYASTVQVRAVGRDPTSEETDRAAELAHRIVADMEATGDREAFVTEIGDAESGTDIKLSTTKIGLKLARKLVEEFGGDFEDHETLITEDDDGNEVYRVTYAVRLPEFVPGDVVDIAADDGGPVLVQSNHGNLKGVRVTTGEPYEASFEDGDSPDARKLGAVADATEATVVTVEDDAAIQILDPDTYEAQTVARPDYVDPDASTVPALKSRAGLHVLPDALEHHHHHH”: the “soluble on expression in E. coli” value is reported as “not soluble”.
Consider “MKWSEYANLAQQSLEKFYLADTKEQFLNNFYPTENPEEDNKVFNYWWLAHLVEVRLDAYLRTKKQADLEVAEKTYLHNKNRNGGTLIHDFYDDMLWNALAAYRLYKATGKSIYLEDAQLVWQDLVDTGWNDIMGGGFAWRRPQMYYKNTPVNAPFIILSCWLYNELNETKYLEWAMKTYEWQTKVLVREDGFVEDGINRLEDGTIDYEWKFTYNQGVYIGANLELYRITKEAKYLDTANKTAAISLKELTEDGIFKDEGNGGDEGLFKGIFYRYFTDLIEETANKTYRDFVLNSCQILVENAKLDGYLLMGMNWKEKPSGKIPYSAELSGMIALEMAAKLELEHHHHHH”, for which the “soluble on expression in E. coli” value is given as “soluble”.
With “SSFSWDNCDEGKDPAVIRSLTLEPDPIIVPGNVTLSVMGSTSVPLSSPLKVDLVLEKEVAGLWIKIPCTDYIGSCTFEHFCDVLDMLIPTGEPCPEPLRTYGLPCHCPFKEGTYSLPKSEFVVPDLELPSWLTTGNYRIESVLSSSGKRLGCIKIAASLKGI”, the “soluble on expression in E. coli” value is “soluble”.
In the case of “MDRINGLSDEIICHILSFLPTKESALTSVLSKRWRNLFALTPNLHLVDDDLEVGGCGQTLIDFVDRVLAVSSNLPIREFSIKC”, the “soluble on expression in E. coli” value was “soluble”.
As for “MTTTPIADQAAVLAEGMADQTPSEALEAFGAEQAELDAAGVPSGIATAGSLMPDASLLDVHGNATTLQQVREGRPAVVVFYRGAWCPYCNLALRTYERELAPRLAERGVSMIAVSPQRPDGSLTMAQTNDLSYDVLSDPGNHIGRALGIVTRPTDRVQHAQASLGLDLTEVNADGTPDILMPTVAIVDAEGVLRWIDVHPNYVTRSEPARILEALARAVR”, the “soluble on expression in E. coli” value is “not soluble”.
On to “LPRELRPLMKKPLGILYRGKGRDTIEKFAGELSSPTKLISVGDVTTFHLLEAGIIPDICIVDDRTKRKPVSSDVSVRNRDKVYEEVSVDNPAGIITDELIRTLCEAFASEKLLRIFVRGEEDLATLPVILLAPPGSVVLYGQPDEGVVFVEVTEKKKEEIRALFEKLISK”, for which the “soluble on expression in E. coli” value is on record as “not soluble”.
In the case of “KEKFNYYIGANIAADKNEVTKITLGGQNLMISGYSAHGAGGRGINMFAEGHPMSYFNLIETDGLFRSAEEIANYKNKDGELIQPAAQVGDVRYKDWNGDGKINTDDQHDVGSPFPDFTFGIRLGGEWNNFDFNLFFDGMVGNKIYNYPRYRLESGNFNGNMSTVLANSWRPDNQNTDIPRFSKTDGADNKWAYTDRWLEDGSYIRLKTLDIGYTLPKVLTKKIKLENVRIYTSMENLFTLTKYSGYTPDLGESSVAGVAYNVFSRGIDQGRYPLPRTISFGIQVNL”, the “soluble on expression in E. coli” value is “not soluble”.
Consider “SASATAPAAAVPTLASPLEQLRHLAEELRLLLPRVRVGEAQETTEEFNREMFWRRLNEAAVTVSREATTLTIVFSQLPLPSPQETQKFCEQVHAAIKAFIAVYYLLPKDQGITLRKLVRGATLDIVDGMAQLMEVLSVTPTQSPENNDLISYNSVWVACQQMPQIPRDNKAAALLMLTKNVDFVKDAHEEMEQAVEECDPYSGLLNDTEENNSDNHNHEDDVLGFPSNQDLYWSEDDQELIIPCLALVRASKACLKKIRMLVAENGKKDQVAQLDDIVDISDEISPSVDDLALSIYPPMCHLTVRINSAKLVSVLKKALEITKASHVTPQPEDSWIPLLINAIDHCMNRIKELTQSELEL”, for which the “soluble on expression in E. coli” value is recorded as “soluble”.
